# Patent US20080261267A1, “Cellulases from Rumen” (priority 2004, published 2008)
# B1: pBKRR.11: rumen endo-beta-1,4-glucanase, sequences FIG. 14/22 (protein)
# chain: MRILKLFFIALITAAPIFSYAQTVDDMKSVFVDAHTWTASIKMGWNLGNALECQTGWNDKAFCWNPANNFNAETSWGNPKTTKEMLQAVREAGFDAVRIPVNWGAHISDESTCTIDAAWMNRVQEVVDWALQLGFKVLLNTHHEYWLEWHPTYDREQANNNKLAKIWMQVANRFKDYGPDLAFAGINEVHLDGKWNVPTEENTAVTNSYNQTFVNTVRATGGNNLYRNLVVQCYSCNPDYGLTGFVVPADKVENRLSIEYHYYRPWDYAGDAPKYYYWGEAYKQYGEVSTADNEAKVNADFARYKAAWYDKGLGVIMGEWGASQHYQVESKAKQLENLYYHFKTVREAAQKNNIATFVWDNNACGNGGDKFGIFDRNDNMSVAFPEALNAIQEASGQTVVDYSRQALQPSVVYQGDELMNWGEGKQLIIAGSKFAYFTAESKLMVTLDAEPGADYDMLQFAYGDWKSKPLMIISGRSYKGQVEPSKINGSRNTYTLFIGFKESSLNQLKDKGITLQGHGLRLRNVVVMPEGLVLGL
# modifications: Description of sequence sequence derived from genomic DNA library from rumen ecosystem, particularly amino acid sequence of clones pBKRR 11, 10 and 12; RR10=RR11=RR12; (see Figure 22)
# Key:
# Type in all cases: biochemical
# [1] = Specific activity of purified endoglucanases; conditions: purified to homogeneity; pH 5.6 and 50° C.; CMC as substrate
# Method: FIG. 2 represents Table 2 which contains the data obtained by purification of endoglucanases of seven clones (pBKRR.1, 9, 11, 13, 14, 16 and 22) with respect to the specific activity. […] They were purified to homogeneity and their specific activity was estimated at pH 5.6 and 50° C., using CMC as substrate.
# The endoglucanases were recovered from 1-liter shaked flask fermentations, in Luria-Bertany broth plus 50 μg of Kanamycin per ml. One gram of fermentation broth was mixed with 10 ml of standard buffer in a 50-ml Falcon tube. The solution was vortexed and then incubated with DNase I grade II, for 30-45 min, and then sonicated for 4 min total time. A sample of the soluble fraction was separated from insoluble debris by centrifugation (10,000×g, 30 min, 4° C.) and proteins were precipitated by addition of 80% chilled acetone (−20° C.). Proteins were resuspended in standard buffer and stored at −20° C. at a concentration of 5 mg/ml until use. The amount of protein expression was examined using SDS-PAGE with 10-12% acrylamide. […] The gel region containing the active cellulase, detected in a parallel track by activity staining (using Ostazin brillian-blue carboxymethyl cellulose) was excised, suspended in two volumes of standard fuffer and homogenized in a glass tissue homogenizer. […]
# The standard cellulase activity was determined in a continuous spectrophotometric assay by measuring the release of reducing sugars from the 4% (wt/vol carboxymethyl cellulose (CMC) in 0.5-ml reaction mixtures containing 50 mM sodium acetate buffer, pH 5.6, at 40° C., using the dinitrosalycilic acid (DNS) method (Bernfeld, P. (1955) Amilases and b. In: Colowick S P, Kaplan N O (eds). Methods in Enzymology, Academic Press, New York pp. 133-155). The reaction was performed in 0.5 ml scale containing 20 mg substrate and 5 mg lyophilised cells or 0.1 mg purified enzyme. Reactions were allow to proceed for a time period of 5-30 min after which the samples were centrifuge (10,000×g, 3 min). […] Finally, each well was diluted with 150 μl water and the absorbance at 550 nm was measured. […]
# [2] = pH-dependent activity and pH stability; conditions: cell lysates; CMC; pH 3.5 to 10.5 at 40° C.
# Method: (§1) FIG. 3 represents Table 3 giving an overview over the biochemical properties of the cellulases according to the invention. Reaction was performed at the optimum pH and temperature for each done using CMC as substrate. […] The values for clones pBKRR.1, 9, 11, 13, 14, 16 and 22 are depicted. For each clone the following data are given: • maximum pH at which the remaining activity after 24 h incubation at the indicate pH is >90% (column “Stable at pH”). […] Activity was measured after 2 h incubation and compared with a control reaction in buffer lacking dimethylsulfoxide, • detergent resistance given by the remaining activity in the corresponding buffer (optimum pH) containing the indicate detergent at a concentration for 0 to 3%. […]
# (§2) FIG. 4 a-c represent the results of the determination of pH and temperature optima showing graphically views of the pH-dependence activity and temperature-dependence activity of the polypeptides according to the invention. The pH optima of rumial endoglucanases were measured under conditions described in Example 5: 4% CMC, 0.5 mL of 50 mM buffer at the corresponding pH and 0.1 mg E. coli cell lysates, for 5-30 min, at 40° C. Effect of temperature on endoglucanase activity was measured in 50 mM sodium acetate buffer pH 5.6. […]
# [3] = Thermal activity and thermostability; conditions: at the pH optima; CMC
# Method: as §1, §2
# Cation dependence = conditions: 10 to 100 mM
# Method: FIG. 3 represents Table 3 giving an overview over the biochemical properties of the cellulases according to the invention. Reaction was performed at the optimum pH and temperature for each done using CMC as substrate. […] The values for clones pBKRR.1, 9, 11, 13, 14, 16 and 22 are depicted. For each clone the following data are given: • maximum pH at which the remaining activity after 24 h incubation at the indicate pH is >90% (column “Stable at pH”). […] Activity was measured after 2 h incubation and compared with a control reaction in buffer lacking dimethylsulfoxide, • detergent resistance given by the remaining activity in the corresponding buffer (optimum pH) containing the indicate detergent at a concentration for 0 to 3%. […] The effect of mono- (Na^+, K^+, NH4^+, and divalent cations (Ca^2+, Mn^2+, Mg^2+, Sr^2+, Fe^2+, Cu^2+, Ni^2+, Co^2+, Zn^2+) was first examined by treating the enzyme with chelating agents (EDTA and EGTA) to remove any endogenous divalent cations, followed by adding cations to the reaction mixture.
# […] Inhibitors such as N-ethylmalemide, iodoacetate and p-chloromercuribenzoate at concentration from 1-5 mM were incubated in the presence of the enzyme for 30 min (30° C.) prior to the addition of the substrate (CMC). The effects of detergents on the endoglucanase activity was analysed by adding of 1-3% (wt/vol) detergent to the enzyme solution. In all cases, the enzyme activity was assayed in triplicate using the standard cellulose assay described above and the residual activity was expressed as percent of the control value (without addition of chemicals).
# [4] = TLC analysis of hydrolysis products; conditions: pH 5.6, 50° C.
# Excerpt: FIG. 7 depicts the result of thin layer chromatography TLC analysis of products of CMC hydrolyzed by endoglucanases derived from a rumial genomic DNA library. The methods used for cellulase and substrate preparation, hydrolysis, TLC, and visualization are described in Example 5. The hydrolysis products glucose, cellobiose, cellotriose are shown an the right side. […] Different pattern was found when using short-chain beta-1,4-glucans.
# The products formed by hydrolysis of cellulose-based substrates (cellobiose, cellotetraose, cellopentaose, cellulose and carboxymethyl cellulose) were analysed by thin-layer chromatography (TLC). Solutions containing 20 μg of E. coli cell lysate proteins and 0.2% (wt/vol) substrate in 50 mM acetate buffer (pH 5.6) were incubated at 50° C. until maximum conversion was achieved. The reactions were terminated by heating the preparation for 5 min at 95° C. and hydrolysis products were separated by TLC on silica gel plates (Merck, Darmstadt, Germany) by using a mixture chloroform, glacial acetic acid, and water (6:14:1) as the solvent. […] Sugars were visualized by heating 105° C. for 15 min the plates which were previously sprayed with a reagent containing amine (2 ml), diphenylamine (2 g), acetone (100 ml) and 85% H3PO4 (15 ml).
molecule,measurement,setting,value
B1,specific activity,[1],6.42 µmol/min/mg
same,pH of highest (maximal) activity,[2],4.5 pH
same,temperature of improved activity and thermostability,[3],50 °C
same,stimulatory effect of Mg^2+,Cation dependence; chloride salt,127%
same,influence of mono- and divalent cations on activity,"Cation dependence; chloride salts, after EDTA and EGTA treatment",not influenced
same,main hydrolysis products of CMC,[4],cellobiose and cellotriose
